Reference: patent US20060257938A1, “Method of screening for drugs that block ligand binding to a lipid binding protein” (priority 2005, published 2006)

Key:
Assay type in all cases: binding
[1] = Probe fluorescence ratio response to palmitic acid relative to ADIFAB2; conditions: response relative to ADIFAB2
Summary of the method: (§1)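 Fluorescently labeled rat intestinal FABP variants were read at two emission wavelengths, near the unbound maximum (about 420 to 480 nm) and the FFA-bound maximum (about 495 to 580 nm). R = Fλ1/Fλ2 after subtracting probe-free intensity; ΔR = R+agent − R0, normalized to ADIFAB2 (rI-FABP-L72A).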

[2] = Probe fluorescence ratio response to oleic acid relative to ADIFAB2; conditions: response relative to ADIFAB2
Summary of the method: as §1

[3] = Probe fluorescence ratio response to arachidonic acid relative to ADIFAB2; conditions: arachidonic acid; response relative to ADIFAB2
Summary of the method: as §1

[4] = Probe fluorescence ratio response to linolenic acid relative to ADIFAB2; conditions: response relative to ADIFAB2
Summary of the method: as §1

[5] = Probe fluorescence ratio response to linoleic acid relative to ADIFAB2; conditions: response relative to ADIFAB2
Summary of the method: as §1

B1: 104T1, 72A (protein, listed as Rattus norvegicus)
chain: AFDGTWKVDRNENYEKFMEKMGINVVKRKLGAHDNLKLTITQEGNKFTVKESSNFRNIDVVFELGVDFAYSAADGTELTGTWTMEGNKLVGKFKRVDNGKELITVREISGNELIQTYTYEGVEAKRIFKKE
modifications: PEPTIDE (1)...(131) wild-type rat intestinal fatty acid binding protein
- DR/DR PA [1]: 0.99
- DR/DR OA [2]: 1.10
- DR/DR AA [3]: 1.01
- DR/DR LNA [4]: 1.07
- DR/DR LA [5]: 1.16

B2: 104V1, 72A (protein, listed as Rattus norvegicus)
chain: AFDGTWKVDRNENYEKFMEKMGINVVKRKLGAHDNLKLTITQEGNKFTVKESSNFRNIDVVFELGVDFAYSAADGTELTGTWTMEGNKLVGKFKRVDNGKELIVVREISGNELIQTYTYEGVEAKRIFKKE
modifications: PEPTIDE (1)...(131) wild-type rat intestinal fatty acid binding protein
- DR/DR PA [1]: 0.63
- DR/DR OA [2]: 0.76
- DR/DR AA [3]: 0.63
- DR/DR LNA [4]: 0.73
- DR/DR LA [5]: 0.73

B3: 106D3, 72A (protein, listed as Rattus norvegicus)
chain: AFDGTWKVDRNENYEKFMEKMGINVVKRKLGAHDNLKLTITQEGNKFTVKESSNFRNIDVVFELGVDFAYSAADGTELTGTWTMEGNKLVGKFKRVDNGKELIAVDEISGNELIQTYTYEGVEAKRIFKKE
modifications: PEPTIDE (1)...(131) wild-type rat intestinal fatty acid binding protein
- DR/DR PA [1]: 0.26
- DR/DR OA [2]: 0.64
- DR/DR AA [3]: 0.66
- DR/DR LNA [4]: 0.77
- DR/DR LA [5]: 0.80

B4: 104Y1, 72A (protein, listed as Rattus norvegicus)
chain: AFDGTWKVDRNENYEKFMEKMGINVVKRKLGAHDNLKLTITQEGNKFTVKESSNFRNIDVVFELGVDFAYSAADGTELTGTWTMEGNKLVGKFKRVDNGKELIYVREISGNELIQTYTYEGVEAKRIFKKE
modifications: PEPTIDE (1)...(131) wild-type rat intestinal fatty acid binding protein
- DR/DR PA [1]: 0.14
- DR/DR OA [2]: 0.24
- DR/DR AA [3]: 0.36
- DR/DR LNA [4]: 0.28
- DR/DR LA [5]: 0.26

B5: 106C2, 72A (protein, listed as Rattus norvegicus)
chain: AFDGTWKVDRNENYEKFMEKMGINVVKRKLGAHDNLKLTITQEGNKFTVKESSNFRNIDVVFELGVDFAYSAADGTELTGTWTMEGNKLVGKFKRVDNGKELIAVCEISGNELIQTYTYEGVEAKRIFKKE
modifications: PEPTIDE (1)...(131) wild-type rat intestinal fatty acid binding protein
- DR/DR PA [1]: 0.09
- DR/DR OA [2]: 0.22
- DR/DR AA [3]: 0.17
- DR/DR LNA [4]: 0.22
- DR/DR LA [5]: 0.20

B6: 106A1, 72A (protein, listed as Rattus norvegicus)
chain: AFDGTWKVDRNENYEKFMEKMGINVVKRKLGAHDNLKLTITQEGNKFTVKESSNFRNIDVVFELGVDFAYSAADGTELTGTWTMEGNKLVGKFKRVDNGKELIAVAEISGNELIQTYTYEGVEAKRIFKKE
modifications: PEPTIDE (1)...(131) wild-type rat intestinal fatty acid binding protein
- DR/DR PA [1]: 0.16
- DR/DR OA [2]: 0.60
- DR/DR AA [3]: 0.39
- DR/DR LNA [4]: 0.52
- DR/DR LA [5]: 0.51

B7: 106F1, 72A (protein, listed as Rattus norvegicus)
chain: AFDGTWKVDRNENYEKFMEKMGINVVKRKLGAHDNLKLTITQEGNKFTVKESSNFRNIDVVFELGVDFAYSAADGTELTGTWTMEGNKLVGKFKRVDNGKELIAVFEISGNELIQTYTYEGVEAKRIFKKE
modifications: PEPTIDE (1)...(131) wild-type rat intestinal fatty acid binding protein
- DR/DR PA [1]: 0.38
- DR/DR OA [2]: 0.78
- DR/DR AA [3]: 0.75
- DR/DR LNA [4]: 0.71
- DR/DR LA [5]: 0.78

B8: 106H2, 72A (protein, listed as Rattus norvegicus)
chain: AFDGTWKVDRNENYEKFMEKMGINVVKRKLGAHDNLKLTITQEGNKFTVKESSNFRNIDVVFELGVDFAYSAADGTELTGTWTMEGNKLVGKFKRVDNGKELIAVHEISGNELIQTYTYEGVEAKRIFKKE
modifications: PEPTIDE (1)...(131) wild-type rat intestinal fatty acid binding protein
- DR/DR PA [1]: 0.33
- DR/DR OA [2]: 0.82
- DR/DR AA [3]: 0.75
- DR/DR LNA [4]: 0.73
- DR/DR LA [5]: 0.78

B9: 106I3, 72A (protein, listed as Rattus norvegicus)
chain: AFDGTWKVDRNENYEKFMEKMGINVVKRKLGAHDNLKLTITQEGNKFTVKESSNFRNIDVVFELGVDFAYSAADGTELTGTWTMEGNKLVGKFKRVDNGKELIAVIEISGNELIQTYTYEGVEAKRIFKKE
modifications: PEPTIDE (1)...(131) wild-type rat intestinal fatty acid binding protein
- DR/DR PA [1]: 0.29
- DR/DR OA [2]: 0.72
- DR/DR AA [3]: 0.59
- DR/DR LNA [4]: 0.71
- DR/DR LA [5]: 0.68

B10: 106L3, 72A (protein, listed as Rattus norvegicus)
chain: AFDGTWKVDRNENYEKFMEKMGINVVKRKLGAHDNLKLTITQEGNKFTVKESSNFRNIDVVFELGVDFAYSAADGTELTGTWTMEGNKLVGKFKRVDNGKELIAVLEISGNELIQTYTYEGVEAKRIFKKE
modifications: PEPTIDE (1)...(131) wild-type rat intestinal fatty acid binding protein
- DR/DR PA [1]: 0.43
- DR/DR OA [2]: 0.87
- DR/DR AA [3]: 0.84
- DR/DR LNA [4]: 0.84
- DR/DR LA [5]: 0.87

B11: 106N1, 72A (protein, listed as Rattus norvegicus)
chain: AFDGTWKVDRNENYEKFMEKMGINVVKRKLGAHDNLKLTITQEGNKFTVKESSNFRNIDVVFELGVDFAYSAADGTELTGTWTMEGNKLVGKFKRVDNGKELIAVNEISGNELIQTYTYEGVEAKRIFKKE
modifications: PEPTIDE (1)...(131) wild-type rat intestinal fatty acid binding protein
- DR/DR PA [1]: 0.15
- DR/DR OA [2]: 0.50
- DR/DR AA [3]: 0.38
- DR/DR LNA [4]: 0.44
- DR/DR LA [5]: 0.45
